Drawing on US20220213227A1 (published 2022), this text covers Kd for one molecule.

As usually defined, the Kd is the free concentration of one partner at which half of the binding sites on the other are occupied at equilibrium, for simple one-to-one binding.

The target of this experiment is T1, soluble extracellular region of cynomolgus monkey CD38 antigen fused to a 6-His-tag (UniProt Q5VAN0 45-301).
T1 chain: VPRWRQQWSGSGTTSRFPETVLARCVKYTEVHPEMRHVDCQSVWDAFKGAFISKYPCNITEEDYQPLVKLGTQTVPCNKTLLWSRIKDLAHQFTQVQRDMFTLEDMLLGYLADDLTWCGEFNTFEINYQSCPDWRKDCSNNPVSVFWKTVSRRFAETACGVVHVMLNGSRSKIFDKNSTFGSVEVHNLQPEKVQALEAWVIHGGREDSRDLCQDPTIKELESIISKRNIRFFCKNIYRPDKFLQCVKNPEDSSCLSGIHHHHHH
In words: SPR.

B1: chimeric 9G7 antibody (antibody, V domains shown)
VH: QVTLKESGPGILQPSQTLSLTCSFSGLSLSTSGKGVGWIRQPSGKGLEWLAHIWWDDDKRYNPALKSRLTISKDTSSNQVFLKIASVDTADTATYYCARIELGRSYVMDYWGQGTTVTVSS
VL: DIVMTQSHKFMSTSVGDRVSISCKASQDVITSVAWFQQKPGQSPKLLIYSASYRYTGVPDRFTGSGSGTDFTFTISSVQAEDLAVYYCQQHYTIPLTFGAGTKLELKR
On to B1, for which the affinity, expressed as Kd, was 1 nM.
